Reference: paper PMC9127447

Target: dynamin 2-K562E (baculovirus) (rat)
Assay: not stated; polymerization of recombinant (baculovirus) dynamin 2 with or without Bis-T-23; method in Supplementary Figures S2E, F

Substance: dynamin 2-K562E (baculovirus) (enzyme)
- fold increase of polymerization with Bis-T-23 against without Bis-T-23: 3.5 times
